These results are taken from article PMC4117426, “SlmA Antagonism of FtsZ Assembly Employs a Two-pronged Mechanism like MinCD”.

Residue numbers refer to the chain shown, from its start.

A word on the Kd: it is the equilibrium constant for the complex coming apart.

Holding throughout (details): protein: recombinant; tags: N-terminal 6xHis; chain copies: 4; blunt
Data set [1] has as its target T1, 6xHis-SlmA WT (Escherichia coli, UniProt P0C093 1-198).
T1 sequence: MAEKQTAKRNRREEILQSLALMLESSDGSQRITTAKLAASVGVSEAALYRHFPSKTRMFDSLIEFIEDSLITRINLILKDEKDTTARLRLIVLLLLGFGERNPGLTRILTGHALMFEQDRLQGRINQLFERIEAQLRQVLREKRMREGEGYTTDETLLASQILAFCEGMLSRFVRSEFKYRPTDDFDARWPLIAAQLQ
The data set is described as follows: BLI; kon 3.24e4 1/(M*s), koff 2.04e-3 1/s, R2 0.98; BLI in 1x Pol buffer: 50 mM HEPES-NaOH pH 8.0, 200 mM KCl, 10 mM MgCl2, room temperature; 50 nM biotinylated SBS17 on streptavidin tips. (In general: In BLI a coated tip is dipped into the sample, and binding shifts an interference pattern.)

The target in data set [2] is T2, 6xHis-SlmA-R73D (Escherichia coli, UniProt P0C093 1-198, R73D).
T2 sequence: T1 sequence with R73D
The experiment in a line: BLI; 4 uM SlmA; binds like WT; BLI in 1x Pol buffer: 50 mM HEPES-NaOH pH 8.0, 200 mM KCl, 10 mM MgCl2, room temperature; 50 nM biotinylated SBS17 on streptavidin tips.

Data set [3] has as its target T3, 6xHis-SlmA-F65A (Escherichia coli, UniProt P0C093 1-198, F65A).
T3 sequence: T1 sequence with F65A
The description is as above.

Data set [4] has as its target T4, 6xHis-SlmA-T33A (Escherichia coli, UniProt P0C093 1-198, T33A).
T4 sequence: T1 sequence with T33A
The data set is described as follows: BLI; 4 uM SlmA; BLI in 1x Pol buffer: 50 mM HEPES-NaOH pH 8.0, 200 mM KCl, 10 mM MgCl2, room temperature; 50 nM biotinylated SBS17 on streptavidin tips.

B1: biotinylated SBS17-30mer (dsDNA)
DNA 1: CAAAAGTAAGTAAATGGTCACTAACGTTGA
DNA 2: TCAACGTTAGTGACCATTTACTTACTTTTG
Consider B1, for which the dissociation constant Kd in data set [1] was 62.9 nM. Also, the binding result in data set [2] is listed as “binds”; in data set [3] it was “binds”; in data set [4], “no binding”.
